Experimental data taken from paper PMC4561914 (Scientific Reports, 2015).

Molecular target: the molecule itself
Test: native MS; rBos d 2 in 10 mM ammonium acetate, pH 6.9; protein (monomer) concentration 0-90 μM; monomer-dimer ratio from ion intensities, fit of free monomer against total protein; dimer to monomers

B1: recombinant bovine dander lipocalin allergen Bos d 2 (natural protein, bovine (cow), UniProt Q28133 17-172, looked up)
chain: QETPAEIDPSKIPGEWRIIYAAADNKDKIVEGGPLRNYYRRIECINDCESLSITFYLKDQGTCLLLTEVAKRQEGYVYVLEFYGTNTLEVIHVSENMLVTYVENYDGERITKMTEGLAKGTSFTPEELEKYQQLNSERGVPNENIENLIKTDNCPP
modifications: a substantial amount of the molecules contained a pyrrolidone carboxylic acid (PCA) formed by cyclization of the N-terminal glutamine; partly oxidized, probably at a single methionine; two disulfide bonds
notes: Bos d 2, bovine (cow) dander lipocalin allergen; also called rBos d 2
Q: Which Kd does the source give for B1 here?
A: 340 ± 20 µM

Q: And the “stoichiometry N” value?
A: 2
